Laboratory results published in PMC6220978, “Induced conformational changes activate the peptidoglycan synthase PBP1B” (Molecular Microbiology, 2018).

Tests used:
Test in all cases: SPR; PBP1B versions immobilised to the chip surface; CpoB versions injected from either 3.9 nM to 2 μM or from 78 nM to 40 μM; apparent KD by non-linear regression, at least three independent experiments
Details in all cases: both partners purified
[1] = biological target: T1, PBP1B R157A (E. coli, UniProt P02919 46-844, R157A)
T1 construct: PBP1B, E. coli, residues 46-844, made by mutagenesis of pDML924; source: E. coli BL21(DE3), purified (membrane extract, HisTrap, thrombin, HiTrap SP ion exchange)
T1 sequence (looked up): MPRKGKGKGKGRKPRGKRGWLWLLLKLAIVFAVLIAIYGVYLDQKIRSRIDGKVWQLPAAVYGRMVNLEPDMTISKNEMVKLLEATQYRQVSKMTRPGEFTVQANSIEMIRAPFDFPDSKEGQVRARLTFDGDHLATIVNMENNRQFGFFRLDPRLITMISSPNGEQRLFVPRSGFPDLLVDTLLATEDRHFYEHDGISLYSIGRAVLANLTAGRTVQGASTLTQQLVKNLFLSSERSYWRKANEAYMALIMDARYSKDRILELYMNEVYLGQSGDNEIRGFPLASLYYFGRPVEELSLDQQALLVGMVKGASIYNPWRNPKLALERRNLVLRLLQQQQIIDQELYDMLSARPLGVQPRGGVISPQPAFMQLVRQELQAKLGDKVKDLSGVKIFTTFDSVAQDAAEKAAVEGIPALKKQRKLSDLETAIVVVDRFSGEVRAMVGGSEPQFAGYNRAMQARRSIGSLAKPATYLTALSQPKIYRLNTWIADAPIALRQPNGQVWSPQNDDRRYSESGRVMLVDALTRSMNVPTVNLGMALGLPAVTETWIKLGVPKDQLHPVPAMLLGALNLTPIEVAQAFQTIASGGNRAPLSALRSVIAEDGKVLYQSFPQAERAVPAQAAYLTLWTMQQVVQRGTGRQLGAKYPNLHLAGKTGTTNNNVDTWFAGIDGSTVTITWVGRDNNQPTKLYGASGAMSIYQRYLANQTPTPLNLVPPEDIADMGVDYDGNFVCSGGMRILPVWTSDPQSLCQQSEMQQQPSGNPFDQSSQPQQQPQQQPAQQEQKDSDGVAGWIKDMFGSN

[2] = biological target: T2, PBP1B D443A (E. coli, UniProt P02919 46-844, D443A)
T2 construct: PBP1B, E. coli, residues 46-844, made by mutagenesis of pDML924; source: E. coli BL21(DE3), purified (membrane extract, HisTrap, thrombin, HiTrap SP ion exchange)
T2 sequence (looked up): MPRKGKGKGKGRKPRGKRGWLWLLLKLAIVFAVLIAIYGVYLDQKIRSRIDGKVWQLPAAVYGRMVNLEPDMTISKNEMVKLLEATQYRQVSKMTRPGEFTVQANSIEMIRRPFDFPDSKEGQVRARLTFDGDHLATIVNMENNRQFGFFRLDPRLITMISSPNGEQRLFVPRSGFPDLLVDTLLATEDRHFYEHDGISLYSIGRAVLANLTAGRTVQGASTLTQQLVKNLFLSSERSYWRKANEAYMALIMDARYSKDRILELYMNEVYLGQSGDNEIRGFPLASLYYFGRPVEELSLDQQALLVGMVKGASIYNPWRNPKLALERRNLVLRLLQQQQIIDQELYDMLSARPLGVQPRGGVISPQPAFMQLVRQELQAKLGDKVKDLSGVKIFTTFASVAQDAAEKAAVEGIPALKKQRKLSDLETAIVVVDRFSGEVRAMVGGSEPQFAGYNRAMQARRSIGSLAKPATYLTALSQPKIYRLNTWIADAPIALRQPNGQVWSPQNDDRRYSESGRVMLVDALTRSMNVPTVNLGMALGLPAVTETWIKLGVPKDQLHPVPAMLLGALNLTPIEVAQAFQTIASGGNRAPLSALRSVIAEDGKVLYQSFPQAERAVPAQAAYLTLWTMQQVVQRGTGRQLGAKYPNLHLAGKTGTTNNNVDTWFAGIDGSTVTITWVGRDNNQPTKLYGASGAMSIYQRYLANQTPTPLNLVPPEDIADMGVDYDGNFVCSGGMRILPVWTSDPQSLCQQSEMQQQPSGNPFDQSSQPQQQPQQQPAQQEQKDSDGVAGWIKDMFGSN

[3] = biological target: T3, PBP1B E341A (E. coli, UniProt P02919 46-844, E341A)
T3 construct: PBP1B, E. coli, residues 46-844, made by mutagenesis of pDML924; source: E. coli BL21(DE3), purified (membrane extract, HisTrap, thrombin, HiTrap SP ion exchange)
T3 sequence (looked up): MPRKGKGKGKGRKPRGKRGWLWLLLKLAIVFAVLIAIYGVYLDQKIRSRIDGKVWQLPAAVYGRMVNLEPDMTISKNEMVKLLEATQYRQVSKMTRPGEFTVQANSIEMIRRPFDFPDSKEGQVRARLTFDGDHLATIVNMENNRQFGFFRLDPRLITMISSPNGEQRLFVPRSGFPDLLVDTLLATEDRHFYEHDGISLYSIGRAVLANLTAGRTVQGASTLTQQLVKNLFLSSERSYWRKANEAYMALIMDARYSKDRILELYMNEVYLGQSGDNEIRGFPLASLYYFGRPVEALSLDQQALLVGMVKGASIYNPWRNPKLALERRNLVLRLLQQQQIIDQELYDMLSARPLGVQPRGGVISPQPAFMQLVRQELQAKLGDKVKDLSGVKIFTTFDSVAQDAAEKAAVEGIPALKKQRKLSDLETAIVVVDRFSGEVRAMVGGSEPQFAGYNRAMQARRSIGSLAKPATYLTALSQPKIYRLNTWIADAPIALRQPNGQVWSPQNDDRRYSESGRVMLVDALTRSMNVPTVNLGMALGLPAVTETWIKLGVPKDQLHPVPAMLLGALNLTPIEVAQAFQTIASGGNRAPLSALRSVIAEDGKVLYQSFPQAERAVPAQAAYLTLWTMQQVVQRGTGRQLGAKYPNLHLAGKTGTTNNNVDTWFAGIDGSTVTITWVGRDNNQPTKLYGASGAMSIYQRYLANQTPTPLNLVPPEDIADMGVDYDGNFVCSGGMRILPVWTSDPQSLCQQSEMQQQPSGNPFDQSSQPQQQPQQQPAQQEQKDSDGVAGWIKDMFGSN

Kd [1]: 147 nM
Kd [2]: 95 nM
Kd [3]: 77 nM
B1: CpoB (full length) (natural protein, E. coli, UniProt P45955 27-263, looked up)
chain: QAPISSVGSGSVEDRVTQLERISNAHSQLLTQLQQQLSDNQSDIDSLRGQIQENQYQLNQVVERQKQILLQIDSLSSGGAAAQSTSGDQSGAAASTTPTADAGTANAGAPVKSGNANTDYNAAIALVQDKSRQDDAMVAFQNFIKNYPDSTYLPNANYWLGQLNYNKGKKDDAAYYFASVVKNYPKSPKAADAMFKVGVIMQDKGDTAKAKAVYQQVISKYPGTDGAKQAQKRLNAM
notes: CpoB, E. coli; The coiled-coil construct begins at residue 27, so the purified 'full length' protein may lack the signal peptide (surmise); source: E. coli BL21(DE3), purified (HisTrap, Superdex 200), as in Gray et al. 2015
